Each block holds one molecule with its values, some of them ahead of it. No end group written: not given here.
How the values were obtained:
[1] = biological target: T1, human colonic mucus (Muc2) (Homo sapiens, UniProt Q02817); test: Immunofluorescent staining of human mucus and fixed human colon samples; conditions: human mucus extract collected on ex vivo tissues
T1 construct: Segments of human colon (ascending, descending and sigmoid colon) were obtained from fully informed patients undergoing surgery; from tissue; host or cells: healthy human colon segments (live explants, mucus collected from them, Carnoy- or formol-fixed sections)
Excerpt: (§1) FIGS. 4A-4B. Cy5-MUB70 is specifically binding to the glycosylated moiety of Muc2 secreted in the colon mucus layer. (FIG. 4A) Immunodetection of Muc2, Muc5ac, Muc5b and Muc6 (dotblot analysis) on human mucus extracts eluted after a pulldown assay performed with biot-MUB70 on avidin conjugated beads (see Methods). Biotin is used as a negative control. Immunodetection of Muc2 (dotblot analysis) on deglycosylated mucus extracts eluted after a pulldown assay performed with biot-MUB70 on avidin conjugated beads. Non-deglycosylated mucus extract is used as a positive control. (FIG. 4B) Co-localization of Muc2 (green) and Cy5-MUB (blue) observed on fixed (Carnoy) human colon samples. Actin is stained in red (Phall.RRX). Observations are performed using a confocal microscope. Bars is 20 μm.
FIGS. 9A-9B. (FIG. 9A) Co-localization of Muc2 (green) and Cy5-MUB (blue) performed by immunofluorescent detection on human mucus extract collected on ex vivo tissues using an epifluorescent microscope. Bar is 50 μm. […]
For immunofluorescence assay mouse α-MUC2 pAbs (Santa Cruz sc-15334) was diluted 1:1000 and FITC-conjugated rabbit anti-mouse was diluted 1:2000. Host cells were detected with DAPI (nuclei, […]) or using Phalloidin-Rhodamine red X (RRX)-conjugated donkey anti-mouse antibodies (Jackson Immunoresearch Antibodies) as an actin marker (stained red); both were used at a final dilution of 1:1000. […]

[2] = biological target: T2, human colonic mucus and goblet cells (Homo sapiens, UniProt Q02817); test: Fluorescent staining of healthy human colon, formol fixed, paraffin embedded samples; conditions: fixed samples, 1 μg/mL
T2 construct: Segments of human colon (ascending, descending and sigmoid colon) were obtained from fully informed patients undergoing surgery; from tissue; host or cells: healthy human colon segments (live explants, mucus collected from them, Carnoy- or formol-fixed sections)
Experimental: FIG. 22. Schematic description of the Cy5-MUB40-1, Cy5-MUB40-2, Cy5-MUB40-3, Cy5-MUB40-4 peptides (SEQ ID NOS 62 to 65). Fluorescent staining of human colonic mucus was performed by the addition of 1 μg/mL of the corresponding Cy5-conjugated peptides with Phalloidin-RRX (1:100) on formol fixed, paraffin embedded samples. Image acquisition was performed using a fluorescent confocal microscope (see Methods).
FIG. 23 Comparative staining analysis of human colonic goblet cells using Cy5-MUB70 and Cy5-MUB40-1. Fluorescent staining of human colonic mucus was performed by the addition of 1 μg/mL of the corresponding Cy5-conjugated peptides with Phalloidin-RRX (1:100) on formol fixed, paraffin embedded samples. Image acquisition was performed using a fluorescent confocal microscope (see Methods).
FIGS. 24A-24B. Comparative human colonic mucus staining using MUB70-Cy5 on healthy tissues and mucinous carcinomas (Coic et al, JBC, 2012 (41)). Fluorescent staining of human colonic mucus was performed by the addition of 1 μg/mL of the corresponding Cy5-conjugated peptides with Phalloidin-RRX (1:100) on formol fixed, paraffin embedded samples. Image acquisition was performed using a fluorescent confocal microscope (see Methods).
As colonic mucinous carcinomas are characterized by abnormal overproduction of Muc2 in the colon mucosa (40), the inventors have hypothesized that Cy5-MUB70 could be used as a novel fluorescent marker for the diagnosis of this pathology. […] As shown previously on a healthy colon (FIG. 3B), the luminal mucus secreted fraction is detected by Cy5-MUB70 (FIG. 24A, top panel). […] This observation might be the consequence of a higher level of mucus compaction, resulting in a lower accessibility for MUB70 to bind Muc2. […] Cy5-MUB70 has been validated as a potent innovative diagnostic tool for colonic mucinous carcinoma detection and might be optimized with alternative markers (e.g. biotin) for practical clinical applications.

[3] = tested on: human neutrophil (PMN) granules; test: Human neutrophil (PMN) granule staining; assay type: cell-based; conditions: for PMN granule staining: PMN purified from human blood, fixed in 4% PFA, 1 μg/mL; for signal brightness of PMN granule staining: fixed PMN, compared among Cy5-MUB40 probes
Experimental: FIG. 14. Staining of individual neutrophiles (white blood cells) in human blood sample. Cy5-MUB70 was incubated on ethanol 100% fixed blood sample. […] (Details are provided on the Figure). […] In particular, granules staining is achieved.
FIG. 15. Staining of individual neutrophiles (white blood cells) purified from fresh human blood sample. Cy5-MUB70 was incubated on PFA 4% fixed neutrophiles (PFA treatment for 15 min, wash 3 times in PBS). Signal was detected as dots distributed in neutrophile cytoplasms. (Staining with Dapi 1:1000 and EB1C5 1:1000 in PBS+10% FCS+0.1% Saponin). […] In particular, granules staining is achieved.
FIG. 29. Identification of Muc2 in neutrophile granules using MUB70-Cy5. Human neutrophil (PMN) granule staining using Cy5-MUB70. PMN were purified from healthy donor blood samples and fixed in the presence of 4% PFA. Fluorescent staining of human colonic mucus was performed by the addition of 1 μg/mL of Cy5-MUB70 (Red) with Dapi (1:100) (Blue) and 1:200 anti-Muc2 antibody (Green). Image acquisition was performed using a fluorescent confocal microscope (see Methods).
FIG. 31. Identification of Muc2 in neutrophile granules. Human neutrophil (PMN) granule staining using Cy5-MUB40-1, Cy5-MUB40-2, Cy5-MUB40-3, Cy5-MUB40-4 peptides. Schematic description of the Cy5-conjugated peptides. PMN were purified from healthy donor blood samples and fixed in the presence of 4% PFA. Fluorescent staining of human colonic mucus was performed by the addition of 1 μg/mL of the Cy5-conjugated peptides (Green) with Dapi (1:100) (Blue) and Phalloidin-RRX (1:1000) (Red). Image acquisition was performed using a fluorescent confocal microscope (see Methods).
The invention has also proven to be useful for the monitoring of neutrophile degranulation events, in particular by using MUB70 and/or MUB40 polypeptides or polypeptides sharing identity with MUB70 and/or MUB40 polypeptides, or fragments thereof, for labelling neutrophile granule(s).

[4] = Analytical gel filtration for quaternary structure; assay type: physicochemical; conditions: gel filtration at 0.1 and 1 mg/ml; phosphate buffer
Experimental: FIGS. 7A-7D. Biochemical properties of MUB70. (FIG. 7A) MUB70 total charge was calculated using Protein Calculator program (Scripps website). (FIG. 7B) Kytes and Doolittle hydropathy profile of MUB70 was generated using ExPASy bioinformatical tools. (FIG. 7C) Validation of biot-MUB70 purity by gel filtration chromatography on Superdex 200 5/150 GL column. (FIG. 7D) Partition coefficients (Kav) of the standard proteins (ferritin, 440 kDa; aldolase, 158 kDa; ovalbumin, 43 kDa; ribonuclease A, 13.7 kDa; aprotinin, 6.5 kDa) were calculated according to Kav=(Ve−V0)/(Vt−V0) (Ve, elution volume; V0, void volume; Vt, total volume of the gel bed) and plotted against the corresponding molecular masses. The molecular mass of biot-MUB70 calculated using the calibration curve equation: log(Mr)=3.12−3.1 Kav.
[…] Standard proteins from the gel filtration calibration kit (ferritin, aldolase, ovalbumin, ribonuclease A, aprotinin; GE Healthcare, Uppsala, Sweden) were used for calibration. As control biot-MUB70 was visualized on 10% SDS-PAGE gel stained by Coomassie.
The theoretical molecular weight (MW) of a biotinylated MUB70 (biot-MUB70) is 8.8 kDa. […] This observation was confirmed with the fluorescent Cy5-MUB70 compound (data not shown). […] The elution profile was recorded at 280 nm. […]

Muc2 = biological target: T3, Muc2 (Homo sapiens, UniProt Q02817); test: Pulldown assay with dot blot immunodetection, Muc2; assay type: binding
T3 construct: human colonic mucus extracts (produced in vitro from differentiated HT-29 MTX cells, see Methods); endogenous in cells; host or cells: HT-29 MTX human colonic epithelial cells, differentiated (21 days)

Muc5ac = biological target: T4, Muc5ac (Homo sapiens, UniProt P98088); test: Pulldown assay with dot blot immunodetection, Muc5ac; assay type: binding; conditions: soluble human colonic mucus extract from HT-29 MTX; detected in the input
T4 construct: soluble human colonic mucus extracts were initially obtained from HT-29 MTX cell secretion product; endogenous in cells; host or cells: HT-29 MTX cells (secreted mucus, soluble fraction)
Excerpt: as §1, with “μm. […]” for “μm.”
(§2) Soluble mucus components used in pulldown assays (input and output) were transferred to nitrocellulose membranes (Invitrogen), which were blocked in PBS/5% milk and further incubated with the primary antibodies diluted in PBS/1% milk/0.01% Tween20 (Sigma-Aldrich) overnight. […] Antibody binding was detected with chemiluminescence (ECL kit, GE Healthcare).

Muc5b = biological target: T5, Muc5b (Homo sapiens, UniProt Q9HC84); test: Pulldown assay with dot blot immunodetection, Muc5b; assay type: binding; conditions: soluble human colonic mucus extract from HT-29 MTX; detected in the input
T5 construct: soluble human colonic mucus extracts were initially obtained from HT-29 MTX cell secretion product; endogenous in cells; host or cells: HT-29 MTX cells (secreted mucus, soluble fraction)
Excerpt: as §1, with “μm. […]” for “μm.”
as §2

Muc6 = biological target: T6, Muc6 (Homo sapiens, UniProt Q6W4X9); test: Pulldown assay with dot blot immunodetection, Muc6; assay type: binding; conditions: soluble human colonic mucus extract from HT-29 MTX; detected in the input
T6 construct: soluble human colonic mucus extracts were initially obtained from HT-29 MTX cell secretion product; endogenous in cells; host or cells: HT-29 MTX cells (secreted mucus, soluble fraction)
Excerpt: as §1, with “μm. […]” for “μm.”
as §2

T6 sequence (Q6W4X9 23-2439): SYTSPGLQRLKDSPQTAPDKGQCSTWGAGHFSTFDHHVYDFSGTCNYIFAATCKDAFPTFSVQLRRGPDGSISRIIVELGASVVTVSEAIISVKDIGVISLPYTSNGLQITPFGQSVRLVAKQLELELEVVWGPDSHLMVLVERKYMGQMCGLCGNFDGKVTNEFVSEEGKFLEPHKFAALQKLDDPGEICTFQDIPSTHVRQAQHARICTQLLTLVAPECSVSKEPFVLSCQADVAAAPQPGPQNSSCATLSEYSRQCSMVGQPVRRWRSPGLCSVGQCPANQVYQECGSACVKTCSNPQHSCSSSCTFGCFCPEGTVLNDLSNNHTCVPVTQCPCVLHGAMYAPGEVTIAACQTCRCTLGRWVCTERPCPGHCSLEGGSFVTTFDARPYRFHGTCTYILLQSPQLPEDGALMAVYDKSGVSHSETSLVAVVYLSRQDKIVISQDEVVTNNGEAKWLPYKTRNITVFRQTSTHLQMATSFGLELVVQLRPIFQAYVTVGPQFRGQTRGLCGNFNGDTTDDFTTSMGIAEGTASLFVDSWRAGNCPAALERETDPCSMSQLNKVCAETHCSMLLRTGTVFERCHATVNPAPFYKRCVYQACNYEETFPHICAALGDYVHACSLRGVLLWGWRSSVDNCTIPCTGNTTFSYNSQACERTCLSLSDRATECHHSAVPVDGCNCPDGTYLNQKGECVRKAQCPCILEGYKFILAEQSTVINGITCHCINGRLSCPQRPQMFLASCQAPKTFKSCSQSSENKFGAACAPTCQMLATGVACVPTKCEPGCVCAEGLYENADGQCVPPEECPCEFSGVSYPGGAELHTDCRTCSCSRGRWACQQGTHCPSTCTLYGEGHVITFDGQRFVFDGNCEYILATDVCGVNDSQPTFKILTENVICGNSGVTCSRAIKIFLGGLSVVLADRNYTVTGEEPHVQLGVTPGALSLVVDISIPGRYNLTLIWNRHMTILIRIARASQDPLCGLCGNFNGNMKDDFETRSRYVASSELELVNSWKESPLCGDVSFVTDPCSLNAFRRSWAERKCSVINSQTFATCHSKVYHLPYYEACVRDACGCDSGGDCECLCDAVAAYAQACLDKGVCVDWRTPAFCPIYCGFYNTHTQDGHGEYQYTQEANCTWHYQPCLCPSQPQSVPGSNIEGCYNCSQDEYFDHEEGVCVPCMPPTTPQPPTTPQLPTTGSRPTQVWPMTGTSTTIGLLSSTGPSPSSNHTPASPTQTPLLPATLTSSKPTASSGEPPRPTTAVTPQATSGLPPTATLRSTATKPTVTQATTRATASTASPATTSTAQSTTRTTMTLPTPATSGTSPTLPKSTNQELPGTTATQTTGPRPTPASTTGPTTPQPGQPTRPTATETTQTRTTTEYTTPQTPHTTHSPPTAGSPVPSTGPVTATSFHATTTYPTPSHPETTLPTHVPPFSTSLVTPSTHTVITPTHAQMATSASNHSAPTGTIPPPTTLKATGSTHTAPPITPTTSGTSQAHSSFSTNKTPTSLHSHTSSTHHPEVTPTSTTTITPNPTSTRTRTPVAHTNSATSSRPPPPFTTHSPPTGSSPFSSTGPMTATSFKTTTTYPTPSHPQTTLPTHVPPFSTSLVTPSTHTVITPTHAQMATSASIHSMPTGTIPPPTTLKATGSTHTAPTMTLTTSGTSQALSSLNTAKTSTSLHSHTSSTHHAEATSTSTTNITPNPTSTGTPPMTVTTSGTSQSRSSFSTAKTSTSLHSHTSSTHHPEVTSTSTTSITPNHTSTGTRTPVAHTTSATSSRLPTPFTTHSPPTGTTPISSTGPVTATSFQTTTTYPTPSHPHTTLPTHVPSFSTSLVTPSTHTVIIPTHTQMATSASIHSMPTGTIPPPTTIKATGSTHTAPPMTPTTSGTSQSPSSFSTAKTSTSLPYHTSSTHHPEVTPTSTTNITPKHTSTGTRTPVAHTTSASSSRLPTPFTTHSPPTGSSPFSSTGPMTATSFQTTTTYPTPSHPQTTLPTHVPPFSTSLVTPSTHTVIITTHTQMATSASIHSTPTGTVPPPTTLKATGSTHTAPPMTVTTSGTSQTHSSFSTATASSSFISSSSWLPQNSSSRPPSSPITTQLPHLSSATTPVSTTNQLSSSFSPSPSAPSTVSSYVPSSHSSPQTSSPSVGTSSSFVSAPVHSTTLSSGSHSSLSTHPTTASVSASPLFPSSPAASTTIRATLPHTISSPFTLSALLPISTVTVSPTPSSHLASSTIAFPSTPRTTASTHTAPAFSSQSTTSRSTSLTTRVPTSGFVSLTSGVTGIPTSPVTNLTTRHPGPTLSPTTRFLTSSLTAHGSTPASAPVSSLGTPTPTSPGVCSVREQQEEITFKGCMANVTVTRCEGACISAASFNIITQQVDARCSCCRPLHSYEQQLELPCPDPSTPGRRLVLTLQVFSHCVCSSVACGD

Molecule: CCN1/C(=C/C=C/C=C/C2=[N+](CCCCCC(=O)O)c3ccc(S(=O)(=O)O)cc3C2(C)C)C(C)(C)c2cc(S(=O)(=O)[O-])ccc21 [Cy5, reference compound]
human mucus binding [1]: does not have the property to bind human mucus

human mucus binding ([2]; human colonic mucus): functional human mucus-binding peptide
Molecule: Cy5-MUB40-1: Cy5-conjugated MUB40-1 peptide with N-terminal cysteine (SEQ ID NO: 62) (C(Cy5)TAEGIKKFEGDGYELFKDNFPAGEKFDNDDTNDQFYTVIF; not fully specified)
goblet cells binding ([2]; human colonic goblet cells): possessing globlet-cells binding properties
PMN granule staining [3]: efficiently stained
signal brightness of PMN granule staining [3]: brighter signal

Molecule: Cy5-MUB40-2: Cy5-conjugated MUB40-2 peptide with N-terminal cysteine (SEQ ID NO: 63) (C(Cy5)GYTDETIPYSTAEGIKKFEGDGYELFKDNFPAGEKFDNDD; not fully specified)
PMN granule staining [3]: efficiently stained

Molecule: Cy5-MUB40-3: Cy5-conjugated MUB40-3 peptide with N-terminal cysteine (SEQ ID NO: 64) (C(Cy5)DQMLRQDDLDGYTDETIPYSTAEGIKKFEGDGYELFKDNF; not fully specified)
PMN granule staining [3]: efficiently stained

Molecule: Cy5-MUB40-4: Cy5-conjugated MUB40-4 peptide with N-terminal cysteine (SEQ ID NO: 65) (C(Cy5)VHVQYIDGETDQMLRQDDLDGYTDETIPYSTAEGIKKFEG; not fully specified)
PMN granule staining [3]: efficiently stained
signal brightness of PMN granule staining [3]: brighter signal

Muc2 interaction after chemical deglycosylation of mucus extract (Muc2; chemically deglycosylated mucus extract): abolished the interaction
Muc2 interaction after desulfatation of mucus extract (Muc2; desulfatation (glycosylsulfatase)): loss of this interaction
Muc2 in eluted fraction of pulldown (Muc2; soluble human colonic mucus extract from HT-29 MTX, avidin beads): immunodectected in the eluted fraction
Muc5ac in eluted fraction of pulldown (Muc5ac): absent from the eluted fraction
Muc5b in eluted fraction of pulldown (Muc5b): absent from the eluted fraction
Muc6 in eluted fraction of pulldown (Muc6): absent from the eluted fraction
B1: biot-MUB70: biotinylated form of MUB70 (maleimide-PEG2-biotin on N-terminal cysteine) (conjugate)
peptide: CVHVQYIDGETDQMLRQDDLDGYTDETIPYSTAEGIKKFEGDGYELFKDNFPAGEKFDNDDTNDQFYTVIF
quaternary structure [4]: exists as trimer
